Experimental data reported in the supplement of paper PMC9876800.

System: peptide library, one residue held at a place counted from the S/T acceptor
Assay: relative phosphorylation of the sub-library (ratio to the mean residue at this position); higher = residue favoured
Conditions: human
Method in brief: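 Purified recombinant kinases, either human or orthologue constructs, were incubated in 384-well plates with biotinylated degenerate peptide sub-libraries. Each sub-library fixed one residue at one position around a central Ser/Thr. Peptides at 50 μM and 50 μM ATP spiked with γ-32P-ATP were used for 90 min under kinase-specific conditions, and spots on streptavidin membranes were phosphorimaged and quantified by densitometry. Relative sub-library phosphorylation is expressed as a ratio to the mean residue at that position.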

Sequence of GRK6, construct: Full length (P43250 whole entry, looked up): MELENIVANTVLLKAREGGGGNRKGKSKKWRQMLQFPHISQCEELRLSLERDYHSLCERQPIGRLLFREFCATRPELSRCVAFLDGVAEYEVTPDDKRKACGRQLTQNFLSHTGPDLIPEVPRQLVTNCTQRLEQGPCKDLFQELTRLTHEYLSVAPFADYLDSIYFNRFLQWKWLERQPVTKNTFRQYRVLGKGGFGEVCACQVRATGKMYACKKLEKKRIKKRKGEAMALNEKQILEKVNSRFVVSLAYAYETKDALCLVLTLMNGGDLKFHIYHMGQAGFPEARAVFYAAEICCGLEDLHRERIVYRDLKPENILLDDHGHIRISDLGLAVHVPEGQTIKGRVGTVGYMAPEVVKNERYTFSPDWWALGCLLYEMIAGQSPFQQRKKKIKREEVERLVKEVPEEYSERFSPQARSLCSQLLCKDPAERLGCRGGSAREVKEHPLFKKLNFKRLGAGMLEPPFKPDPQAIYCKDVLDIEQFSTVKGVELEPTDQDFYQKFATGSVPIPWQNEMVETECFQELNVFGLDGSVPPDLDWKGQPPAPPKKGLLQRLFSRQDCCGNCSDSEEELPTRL
Sequence of NLK, construct: Full length (Q9UBE8 whole entry, looked up): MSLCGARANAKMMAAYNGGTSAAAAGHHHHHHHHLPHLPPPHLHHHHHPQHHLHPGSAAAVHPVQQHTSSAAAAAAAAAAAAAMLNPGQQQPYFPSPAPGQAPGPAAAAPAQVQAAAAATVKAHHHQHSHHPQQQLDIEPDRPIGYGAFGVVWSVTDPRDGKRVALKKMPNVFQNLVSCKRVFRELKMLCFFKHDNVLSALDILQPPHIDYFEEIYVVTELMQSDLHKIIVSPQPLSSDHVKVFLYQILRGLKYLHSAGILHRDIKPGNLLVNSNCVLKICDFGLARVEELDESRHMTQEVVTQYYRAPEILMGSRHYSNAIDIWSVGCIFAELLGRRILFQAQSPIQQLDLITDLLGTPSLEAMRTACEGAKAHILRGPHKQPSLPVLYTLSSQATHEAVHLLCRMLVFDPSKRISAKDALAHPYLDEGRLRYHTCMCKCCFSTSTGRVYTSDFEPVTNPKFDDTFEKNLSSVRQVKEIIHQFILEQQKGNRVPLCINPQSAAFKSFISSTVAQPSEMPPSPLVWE
Sequence of MAPK12, construct: Full length (P53778 whole entry, looked up): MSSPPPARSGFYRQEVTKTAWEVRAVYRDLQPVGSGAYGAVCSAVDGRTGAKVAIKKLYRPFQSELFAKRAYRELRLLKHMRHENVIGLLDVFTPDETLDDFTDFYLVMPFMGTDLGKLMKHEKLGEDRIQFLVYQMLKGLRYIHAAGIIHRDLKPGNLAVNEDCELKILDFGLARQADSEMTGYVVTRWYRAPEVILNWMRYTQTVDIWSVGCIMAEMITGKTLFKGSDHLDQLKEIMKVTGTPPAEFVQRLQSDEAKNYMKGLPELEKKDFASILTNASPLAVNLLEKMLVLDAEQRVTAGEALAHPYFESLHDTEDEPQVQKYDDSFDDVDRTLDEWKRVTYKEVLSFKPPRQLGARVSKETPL

GRK6, construct: Full length (from UniProt P43250)
relative phosphorylation
Conditions | at +1 | at +2 | at +3 | at +4 | at -1 | at -2 | at -3 | at -4 | at -5
A fixed | 0.673 | 1.15 | 0.704 | 0.819 | 0.727 | 0.898 | 0.871 | 1.07 | 1.01
D fixed | 1.13 | 1.55 | 2.51 | 2.04 | 1.42 | 0.993 | 1.73 | 1.37 | 1.41
E fixed | 2.44 | 1.11 | 3.21 | 1.96 | 1.35 | 1.02 | 1.66 | 1.44 | 1.31
F fixed | 1.1 | 0.983 | 0.866 | 0.826 | 0.903 | 1.19 | 0.803 | 0.781 | 1.03
G fixed | 0.61 | 0.867 | 0.716 | 0.91 | 0.601 | 0.761 | 0.793 | 0.935 | 0.932
H fixed | 0.721 | 0.978 | 0.758 | 0.914 | 1.35 | 0.895 | 0.92 | 1.01 | 0.988
I fixed | 1.44 | 1.17 | 0.665 | 0.78 | 0.817 | 0.848 | 0.778 | 0.951 | 1.06
K fixed | 0.654 | 0.7 | 0.59 | 0.796 | 0.854 | 0.878 | 0.806 | 0.955 | 0.873
L fixed | 1.11 | 0.765 | 0.695 | 0.764 | 1.1 | 1.88 | 0.914 | 0.98 | 0.879
M fixed | 1.25 | 0.954 | 0.78 | 0.946 | 0.948 | 1.09 | 0.852 | 0.953 | 0.882
N fixed | 0.771 | 0.893 | 0.726 | 0.864 | 1.29 | 1.02 | 1.08 | 1.03 | 0.988
P fixed | 0.36 | 0.512 | 0.631 | 1.16 | 0.692 | 0.599 | 0.716 | 0.88 | 0.864
Q fixed | 1.03 | 0.763 | 0.653 | 0.852 | 0.82 | 0.87 | 0.899 | 0.887 | 0.775
R fixed | 0.736 | 0.811 | 0.696 | 0.626 | 0.942 | 1.2 | 1.59 | 1 | 0.928
V fixed | 1.24 | 1.43 | 0.821 | 0.763 | 0.947 | 0.766 | 0.713 | 0.844 | 1.06
W fixed | 0.794 | 1.16 | 0.991 | 1.12 | 0.745 | 1.23 | 0.937 | 0.997 | 1.01
Y fixed | 0.944 | 1.19 | 0.985 | 0.858 | 1.5 | 0.863 | 0.93 | 0.922 | 0.999
pThr fixed | 2.88 | 1.34 | 1.58 | 3.36 | 0.96 | 1.16 | 2.9 | 1.6 | 1.52
pTyr fixed | 3.28 | 1.43 | 1.67 | 2.06 | 1.5 | 1.51 | 1.82 | 1.82 | 1.7

MAPK12, construct: Full length (from UniProt P53778)
relative phosphorylation
Conditions | at +1 | at +2 | at +3 | at +4 | at -1 | at -2 | at -3 | at -4 | at -5
A fixed | 0.289 | 1.22 | 1.13 | 1.01 | 1.21 | 1.66 | 1.13 | 1.19 | 1.07
D fixed | 0.0904 | 0.475 | 0.864 | 0.879 | 0.738 | 0.789 | 1.23 | 1.28 | 1.22
E fixed | 0.0906 | 0.374 | 0.973 | 0.872 | 0.905 | 0.822 | 1.41 | 1.21 | 1.14
F fixed | 0.153 | 0.77 | 0.897 | 1.1 | 0.582 | 0.444 | 0.622 | 0.672 | 0.818
G fixed | 0.644 | 1.1 | 1.36 | 1.23 | 1.36 | 1.14 | 1.98 | 1.44 | 1.34
H fixed | 0.183 | 1.38 | 1.26 | 1 | 1.17 | 0.584 | 1.23 | 1.04 | 1.16
I fixed | 0.187 | 1.31 | 0.697 | 0.881 | 0.542 | 0.946 | 0.712 | 0.774 | 0.715
K fixed | 0.152 | 1.08 | 0.962 | 0.931 | 1.04 | 0.433 | 0.761 | 1.12 | 1.28
L fixed | 0.198 | 0.947 | 0.845 | 0.994 | 1.03 | 1.31 | 0.643 | 0.855 | 0.733
M fixed | 0.17 | 0.878 | 0.851 | 1.15 | 1.27 | 1.16 | 0.838 | 0.949 | 0.83
N fixed | 0.108 | 0.806 | 0.852 | 0.821 | 0.878 | 0.819 | 1.01 | 1.07 | 1.03
P fixed | 13.8 | 0.539 | 1.33 | 1.11 | 1.37 | 3.27 | 1.33 | 1.11 | 1.27
Q fixed | 0.141 | 0.914 | 0.934 | 0.921 | 1.13 | 0.742 | 0.918 | 0.916 | 0.937
R fixed | 0.174 | 1.84 | 1.28 | 0.908 | 1.48 | 0.664 | 1.05 | 1.03 | 1.06
V fixed | 0.302 | 1.36 | 0.855 | 0.89 | 0.611 | 1.31 | 0.649 | 0.654 | 0.823
W fixed | 0.181 | 0.851 | 0.894 | 1.18 | 0.674 | 0.457 | 0.674 | 0.869 | 0.725
Y fixed | 0.159 | 1.15 | 1.02 | 1.12 | 1.01 | 0.446 | 0.802 | 0.827 | 0.859
pThr fixed | 0.509 | 1.04 | 0.824 | 0.669 | 0.457 | 0.823 | 1.27 | 1.15 | 1.42
pTyr fixed | 0.52 | 0.799 | 0.925 | 0.686 | 0.878 | 1.11 | 1.56 | 1.28 | 1.44

NLK, construct: Full length (from UniProt Q9UBE8)
relative phosphorylation
Conditions | at +1 | at +2 | at +3 | at +4 | at -1 | at -2 | at -3 | at -4 | at -5
A fixed | 0.638 | 0.768 | 0.938 | 0.8 | 0.85 | 0.989 | 1.12 | 1.03 | 0.998
D fixed | 0.435 | 0.514 | 0.628 | 0.634 | 0.604 | 0.568 | 0.652 | 0.931 | 1.01
E fixed | 0.41 | 0.477 | 0.618 | 0.607 | 0.571 | 0.604 | 0.729 | 0.855 | 0.86
F fixed | 0.806 | 0.705 | 0.863 | 0.75 | 0.88 | 0.807 | 0.723 | 0.802 | 0.926
G fixed | 1.01 | 0.96 | 1.25 | 0.939 | 0.904 | 0.764 | 1.38 | 1.01 | 0.982
H fixed | 0.652 | 1.23 | 1.04 | 0.982 | 1.21 | 0.842 | 0.819 | 1.11 | 1.02
I fixed | 0.888 | 0.99 | 1.24 | 1.37 | 0.868 | 0.941 | 0.579 | 0.931 | 0.847
K fixed | 0.654 | 1.56 | 1.39 | 1.47 | 1.16 | 0.992 | 0.991 | 1.18 | 1.19
L fixed | 0.921 | 1.12 | 0.995 | 1 | 1.9 | 1.81 | 1.12 | 1.03 | 0.995
M fixed | 0.902 | 0.853 | 1.01 | 0.983 | 1.38 | 1.56 | 1.63 | 0.992 | 0.768
N fixed | 0.581 | 0.991 | 0.762 | 0.868 | 0.805 | 0.812 | 0.956 | 1.1 | 1.01
P fixed | 5.41 | 0.754 | 0.9 | 0.946 | 1.07 | 1.42 | 1.16 | 0.89 | 1.02
Q fixed | 0.629 | 0.904 | 0.883 | 0.948 | 0.953 | 1.03 | 0.941 | 1.02 | 1.06
R fixed | 0.798 | 2.21 | 1.66 | 1.39 | 1.35 | 1.41 | 1.9 | 1.32 | 1.3
V fixed | 0.777 | 1.09 | 0.989 | 1.16 | 0.995 | 0.861 | 0.864 | 0.85 | 0.831
W fixed | 0.753 | 0.859 | 0.824 | 1.16 | 0.638 | 0.807 | 0.752 | 1.07 | 1.07
Y fixed | 0.743 | 1.01 | 1.01 | 0.996 | 0.857 | 0.796 | 0.688 | 0.88 | 1.11
pThr fixed | 0.784 | 0.694 | 0.723 | 0.725 | 0.775 | 0.996 | 0.944 | 1.18 | 0.965
pTyr fixed | 0.717 | 0.523 | 0.796 | 0.631 | 0.774 | 0.772 | 0.734 | 0.661 | 0.949
